Patent US20070055459A1 (Harvard, published 2007)

T1: HSV UL42 (processivity factor of HSV DNA polymerase) (herpes simplex virus (HSV), UniProt P10226 1-488)
T1 sequence: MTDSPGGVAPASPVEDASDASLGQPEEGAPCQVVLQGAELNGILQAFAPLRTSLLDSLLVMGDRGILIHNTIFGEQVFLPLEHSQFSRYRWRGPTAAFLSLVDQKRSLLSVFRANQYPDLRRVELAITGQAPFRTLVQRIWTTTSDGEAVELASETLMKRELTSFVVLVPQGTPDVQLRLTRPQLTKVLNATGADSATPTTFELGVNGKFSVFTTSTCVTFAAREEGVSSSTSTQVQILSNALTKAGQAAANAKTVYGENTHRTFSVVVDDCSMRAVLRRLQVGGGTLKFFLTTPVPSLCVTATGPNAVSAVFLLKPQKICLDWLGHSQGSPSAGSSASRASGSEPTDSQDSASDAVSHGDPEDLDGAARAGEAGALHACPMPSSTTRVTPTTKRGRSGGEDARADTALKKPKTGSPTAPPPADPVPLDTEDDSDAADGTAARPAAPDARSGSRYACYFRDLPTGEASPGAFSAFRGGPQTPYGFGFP


Target: T1, HSV UL42 (processivity factor of HSV …)
Assay: cell-based or functional assay

Row | Binder | inhibition of long-chain DNA synthesis at 100 µM [% inhibition at 100 µM] | IC50 relative to that of peptide E [fold]
1 | ATAEETRRMLHRAFDTAA [peptide E mutant L35A] | 50 | –
2 | ATAAETRRMLHRAFDTLA [peptide E mutant E22A] | < 20 | –
3 | AAAEETRRMLHRAFDTLA [peptide E mutant T20A] | < 20 | –
4 | ATAEEARRMLHRAFDTLA [peptide E mutant T24A] | – | 3 to 7
5 | ATAEETRRMLARAFDTLA [peptide E mutant H29A] | < 20 | –
6 | ATAEETRRALHRAFDTLA [peptide E mutant M27A] | 40 | –
7 | ATAEETRRMLHRAADTLA [peptide E mutant F32A] | < 20 | –
8 | ATAEETARMLHRAFDTLA [peptide E mutant R25A] | – | 3 to 7
9 | ATAEETRRMLHAAFDTLA [peptide E mutant R30A] | < 20 | –

Target: T1, HSV UL42 (processivity factor of HSV …)
Assay: cell-based or functional assay
Remark: another data set of the same source

Row | Binder | IC50, inhibition of long chain DNA synthesis [µM]
10 | ATAEETRRMLHRAFDALA [peptide E mutant T34A] | 10
11 | ATAEETRRMLHRAFDTAA [peptide E mutant L35A] | 97
12 | ATAEATRRMLHRAFDTLA [peptide E mutant E23A] | 21
13 | ATAAETRRMLHRAFDTLA [peptide E mutant E22A] | > 100
14 | AAAEETRRMLHRAFDTLA [peptide E mutant T20A] | > 100
15 | ATAEETRRMLHRAFDTLA [Peptide E (last 18 residues of HSV DNA polymerase, Pol residues 1218-1235)] | 11
16 | ATAEEARRMLHRAFDTLA [peptide E mutant T24A] | 77
17 | ATAEETRRMLARAFDTLA [peptide E mutant H29A] | > 100
18 | ATAEETRRALHRAFDTLA [peptide E mutant M27A] | > 100
19 | ATAEETRRMLHRAADTLA [peptide E mutant F32A] | > 100
20 | ATAEETRRMLHRAFATLA [peptide E mutant D33A] | 50
21 | DDVAARLRAAGFGAVGAGATAEETRRMLHRAFDTLA [Peptide A (C-terminal 36 amino acid residues of HSV DNA polymerase, Pol residues 1200-1235)] | 1.7
22 | ATAEETARMLHRAFDTLA [peptide E mutant R25A] | 40
23 | ATAEETRAMLHRAFDTLA [peptide E mutant R26A] | 14
24 | ATAEETRRMLHAAFDTLA [peptide E mutant R30A] | > 100
25 | ATAEETRRMAHRAFDTLA [peptide E mutant L28A] | 18
